Data as given in publication PMC3867821.

Target: KLF4 (UniProt Q60793)
Test: anti-HA co-IP, STAT3 blot
Conditions: reference: wild-type FLAG-STAT3; sites Y705

STAT3 (from UniProt P42227) Y705F
binding against the reference: lost
